Measurements reported in patent publication US12097252B2, “Formulation of a peptide vaccine” (priority 2016, dated 2024).
Bridge positions count the residues as written; N and C are the ends. Ends that are not written are not given here.

Assay: In-use chemical stability of vaccine emulsions by UPLC/MS after extraction of peptides
Format: physicochemical
Conditions: for Related substances (≥0.05%) [Area %]: peak in reconstituted PRAME-DP-5P; for Peptides and related substances (≥0.05%) [Area %]: peak in reconstituted P53-DP-5P
Protocol: For samples showing complete dissolution, an emulsion stability of >2 hours, and a chemical stability of the Drug Product solutions (without additional dilution) of >2 hours, the in-use chemical stability of the vaccine emulsions with Montanide ISA 51 VG was monitored with UPLC/MS. For analysis of chemical stability of the reconstituted and emulsified Drug Products, samples were analyzed at various time points, at least up to 2 hours after dissolution. UPLC/MS analysis was performed according to the method describe above for chemical stability of the Drug Product solution, using an extra sample preparation step for extraction of the peptides from the vaccine emulsion. For sample preparation of emulsified products, the following steps were applied: • Take 300 μL Reconstitution Solution and add this to a 15 mL Greiner tube • Add 100 μL heptane • Add 200 μL of the Drug Product emulsion. Pipet the solution up and down three times. • Vortex the mixture for 30 seconds • Centrifuge the mixture for 5 minutes at 4400 rpm to obtain a two-phase system • With a 20-200 μL pipette, take a 100 μL sample from the bottom layer and transfer to a total recovery UPLC vial. • Analyze with UPLC/UV/MS according to the method described for chemical stability of the Drug Product solutions. Results Solvent Screening for Reconstitution and Emulsification
Analysis of chemical stability was performed by UPLC-MS as described in Example 1, at the section describing methods for analysis of in-use chemical stability of HPV-DP-6P and HPV-DP-7P vaccine emulsions including extraction of the peptides from the vaccine emulsion.
Purity of the Drug Product at different time points was calculated as follows: Purity (%)=100%−Sum of impurities≥0.05% area

Substance | Related substances (≥0.05%) [Area %] (in-use storage t = 0 h) | Related substances (≥0.05%) [Area %] (in-use storage t = 1 h) | Related substances (≥0.05%) [Area %] (in-use storage t = 2 h) | Related substances (≥0.05%) [Area %] (in-use storage t = 3 h) | Peptides and related substances (≥0.05%) [Area %] (in-use storage t = 0 h) | Peptides and related substances (≥0.05%) [Area %] (in-use storage t = 1 h) | Peptides and related substances (≥0.05%) [Area %] (in-use storage t = 2 h) | Peptides and related substances (≥0.05%) [Area %] (in-use storage t = 3 h)
SEQ ID NO 153: PRAME-derived peptide, component of PRAME DP-5P (LETFKAVLDGLDVLLAQEVRPRRWKLQVLDLRK) | 21.89 | 22.70 | 22.51 | 22.59 |  |  |  | 
SEQ ID NO 155: PRAME-derived peptide, component of PRAME DP-5P (WTVWSGNRASLYSFPEPEAAQPMTKKRKVDGLST) | 23.35 | 22.85 | 22.65 | 22.62 |  |  |  | 
SEQ ID NO 156: PRAME-derived peptide, component of PRAME DP-5P (IPVEVLVDLFLKEGACDELFSYLIEKVKRKKNVLR) | 10.56 | 10.52 | 10.17 | 9.98 |  |  |  | 
SEQ ID NO 160: PRAME-derived peptide, component of PRAME DP-5P (LRRLLLSHIHASSYISPEKEEQYIAQFTSQFLS) | 13.61 | 13.49 | 13.34 | 13.40 |  |  |  | 
SEQ ID NO 166: PRAME-derived peptide, component of PRAME DP-5P (SYEDIHGTLHLERLAYLHARLRELLCELGRPSMV) | 13.49 | 14.15 | 13.81 | 13.59 |  |  |  | 
SEQ ID NO 191: P53-derived synthetic long peptide, component of P53 DP-5P (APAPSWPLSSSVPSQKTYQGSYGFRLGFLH) |  |  |  |  | 30.37 Area % | 28.75 | 28.81 | 28.81
SEQ ID NO 193: P53-derived synthetic long peptide, component of P53 DP-5P (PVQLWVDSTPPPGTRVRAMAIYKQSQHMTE) |  |  |  |  | 23.90 Area % | 22.38 | 22.31 | 22.19
SEQ ID NO 194: P53-derived synthetic long peptide, component of P53 DP-5P (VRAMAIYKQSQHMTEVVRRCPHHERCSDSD) |  |  |  |  | 13.00 Area % | 12.02 | 11.87 | 11.63
SEQ ID NO 201: P53-derived synthetic long peptide, component of P53 DP-5P (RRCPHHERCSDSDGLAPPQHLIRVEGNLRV) |  |  |  |  | 12.43 Area % | 11.73 | 11.72 | 11.60
SEQ ID NO 203 intramolecular disulfide: related substance: intramolecular disulfide of the peptide set forth in SEQ ID NO: 203 (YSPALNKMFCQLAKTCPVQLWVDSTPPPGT; disulfide 10-16 (inferred)) |  |  |  |  | < | 1.05 | 1.54 | 1.87
SEQ ID NO 203: P53-derived synthetic long peptide, component of P53 DP-5P (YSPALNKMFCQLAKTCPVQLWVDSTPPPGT) |  |  |  |  | 13.73 Area % | 16.73 | 16.21 | 15.56
